Results as given in patent publication US20160017037A1 (GlaxoSmithKline, published 2016).
Positions count from the first letter of the chain named. Values belong to the binder of their own block, whether it stands above or below them.

How the values were obtained:
[1] = molecular target: T1, recombinant soluble human FcγRIIa R131 (human, UniProt P12318 36-218, limits assumed); test: SPR ProteOn XPR36, His-tagged receptor captured on anti-poly-histidine IgG, antibody analyte 8-2048 nM, equilibrium model, 25 C
T1 sequence (looked up): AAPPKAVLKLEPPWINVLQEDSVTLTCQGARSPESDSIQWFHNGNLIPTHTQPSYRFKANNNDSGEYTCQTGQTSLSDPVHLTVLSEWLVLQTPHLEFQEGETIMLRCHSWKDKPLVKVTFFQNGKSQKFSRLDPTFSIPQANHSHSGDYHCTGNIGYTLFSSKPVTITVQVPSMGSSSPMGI
Method: A goat anti-poly-histidine IgG was immobilised on a GLM biosensor chip by primary amine coupling. This surface was used as a capture surface for the poly-histidine tagged human Fc gamma receptors. […] The goat anti-poly-histidine IgG surface was regenerated with 100 mM phosphoric acid between interactions. The run was carried out on the ProteOn XPR36 Protein Array Interaction System at 25° C. and using HBS-EP as running buffer. Data was analysed for each receptor separately, setting a global R-max and using the Equilibrium Model inherent to the ProteOn's analysis software. Control molecules were run at the beginning and the end of the set of samples to be tested to ensure comparability of results. Data was compared from two experiments and hybrid control antibodies used as controls between experiments.

[2] = molecular target: T2, Recombinant cynomolgus macaque LAG-3 ECD-His6 (cynomolgus macaque, UniProt P18627 24-433 (human entry)); test: SPR Biacore T100 (orthologues at 37 C, human at 25 C)
T2 construct: In-house generated; also called cyno LAG-3
T2 chain: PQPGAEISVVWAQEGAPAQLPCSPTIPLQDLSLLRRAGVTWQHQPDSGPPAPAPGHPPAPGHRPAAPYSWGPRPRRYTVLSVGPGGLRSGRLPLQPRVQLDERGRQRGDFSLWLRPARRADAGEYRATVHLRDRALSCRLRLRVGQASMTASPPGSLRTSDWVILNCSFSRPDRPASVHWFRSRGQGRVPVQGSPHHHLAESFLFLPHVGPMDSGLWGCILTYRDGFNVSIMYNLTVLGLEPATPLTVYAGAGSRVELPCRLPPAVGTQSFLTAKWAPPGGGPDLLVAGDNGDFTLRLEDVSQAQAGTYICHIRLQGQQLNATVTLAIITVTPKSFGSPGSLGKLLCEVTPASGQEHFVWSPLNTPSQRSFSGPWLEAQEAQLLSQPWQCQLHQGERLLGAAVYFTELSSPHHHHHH
Method: (§1) Wild type fucosylated and afucosylated antibodies were compared for their ability to bind to recombinant human LAG-3 ECD with a C-terminal His6 (SEQ ID NO:51) using the Biacore™ T100 (GE Healthcare™). Protein A was immobilised on a CM5 chip by primary amine coupling. This surface was then used to capture the humanised antibodies. Recombinant human LAG-3 ECD-His6 was then passed over the captured antibodies at 32, 8, 2, 0.5 and 0.125 nM and regeneration was carried out using 50 mM NaOH. The binding curves were double referenced with buffer injection (i.e. 0 nM) and the data was fitted to the T100 analysis software using the 1:1 model. The run was carried out at 25° C., using HBS-EP as the running buffer.
(§2) Protein A was immobilised on a CM5 chip by primary amine coupling. This surface was then used to capture the humanised antibodies. In-house generated recombinant cynomolgus macaque and baboon LAG-3 ECD-His6 were then passed over the captured antibodies and regeneration was carried out using 50 mM NaOH. LAG-3 ECD-His6 was passed over at 16, 4, 1, 0.25 and 0.0625 nM. The binding curves were double referenced with buffer injection (i.e. 0 nM) and the data was fitted to the T100 analysis software using the 1:1 model. The run was carried out at 37° C. using HBS-EP as the running buffer.

[3] = molecular target: T3, Recombinant baboon LAG-3 ECD-His6 (baboon, UniProt P18627 24-433 (human entry)); test: as above
T3 construct: In-house generated
T3 chain: T2 chain with R188Q, G193E, A243T, A288V, D293N, H357R
Method: as §1, §2

[4] = molecular target: T4, Human LAG-3 on cells (human LAG-3 expressing EL4 cells; activated human CD3+ T cells) (human, UniProt P18627 23-525); test: flow cytometry (MFI), Alexa647-conjugated antibody titrated on human LAG-3 expressing EL4 cells; direct binding curve, half-maximal value labelled IC50 in the table under the graph; unit taken from the concentration axis
T4 construct: whole, on cells; also called LAG-3 positive T cells
T4 sequence (looked up): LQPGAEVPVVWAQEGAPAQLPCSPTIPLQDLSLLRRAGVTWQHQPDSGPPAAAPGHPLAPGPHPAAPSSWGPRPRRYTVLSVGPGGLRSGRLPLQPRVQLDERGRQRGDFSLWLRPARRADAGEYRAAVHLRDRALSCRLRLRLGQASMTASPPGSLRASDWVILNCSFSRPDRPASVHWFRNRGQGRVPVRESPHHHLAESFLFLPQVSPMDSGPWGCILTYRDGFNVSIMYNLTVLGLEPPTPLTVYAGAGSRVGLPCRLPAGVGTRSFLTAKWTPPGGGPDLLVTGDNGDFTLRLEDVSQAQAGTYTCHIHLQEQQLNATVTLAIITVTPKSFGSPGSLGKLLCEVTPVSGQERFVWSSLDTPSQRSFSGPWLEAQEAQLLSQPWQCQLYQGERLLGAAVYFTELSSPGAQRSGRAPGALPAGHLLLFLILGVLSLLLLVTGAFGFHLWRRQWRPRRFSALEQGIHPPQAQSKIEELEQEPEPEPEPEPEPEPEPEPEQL
Method: Human LAG-3 expressing EL4 cells were incubated with either IMP731, H5L7 or H5L7BW Alexa647-conjugated antibodies at varying concentrations of up to 50 μg/ml for 30 minutes at room temperature. Cells were washed with FACS buffer (PBS+0.5% BSA) to remove unbound antibody.
EL4 cells and CD3⁺ T cells were analysed by FACS using a Beckman Coulter FC 500 flow cytometer. FACS raw data were analysed using CXP Analysis software (Beckman Coulter). The data was initially plotted on a forward-scatter versus side-scatter plot and the population of cells of interest were gated. This gated population was then plotted as a histogram displaying fluorescence intensity and the mean fluorescence intensity (MFI) calculated. MFI values were then plotted in GraphPad Prism 5 software to generate dose response curves.

Kd [1]: 2.62 µM
fold improvement in affinity against human recombinant LAG-3 ECD-His6 [2]: ~100 fold
fold improvement in affinity against human recombinant LAG-3 ECD-His6 [3]: ~100 fold
IC50 [4]: 0.013 mg/L
B1: IMP731 (antibody, human IgG1, kappa)
heavy: not shown
light: DIVMTQSPSSLAVSVGQKVTMSCKSSQSLLNGSNQKNYLAWYQQKPGQSPKLLVYFASTRDSGVPDRFIGSGSGTDFTLTISSVQAEDLADYFCLQHFGTPPTFGGGTKLEIKRTVAAPSVFIFPPSDEQLKSGTASVVCLLNNFYPREAKVQWKVDNALQSGNSQESVTEQDSKDSTYSLSSTLTLSKADYEKHKVYACEVTHQGLSSPVTKSFNRGEC
notes: Chimeric (murine variable domains, human IgG1/kappa constant regions); also called A9H12; chimeric antibody IMP731

Kd [1]: 1.49 µM
fold improvement in affinity against human recombinant LAG-3 ECD-His6 [2]: 10 fold
fold improvement in affinity against human recombinant LAG-3 ECD-His6 [3]: 10 fold
IC50 [4]: 0.0169 mg/L
B2: H5L7BW (antibody, human IgG1, kappa)
heavy: not shown
light: DIQMTQSPSSLSASVGDRVTITCKSSQSLLNPSNQKNYLAWYQQKPGKAPKLLVYFASTRDSGVPSRFSGSGSGTDFTLTISSLQPEDFATYYCLQHFGTPPTFGQGTKLEIKRTVAAPSVFIFPPSDEQLKSGTASVVCLLNNFYPREAKVQWKVDNALQSGNSQESVTEQDSKDSTYSLSSTLTLSKADYEKHKVYACEVTHQGLSSPVTKSFNRGEC
modifications: afucosylated: no fucose on the core carbohydrate structure attached to Asn297
notes: Same plasmids as H5L7, expressed in the BioWa POTELLIGENT (FUT8 knock-out CHO) cell line; also called afucosylated antibody H5L7BW; afucosylated H5L7

Kd [1]: 0.792 µM
fold improvement in affinity against human recombinant LAG-3 ECD-His6 [2]: 10 fold
fold improvement in affinity against human recombinant LAG-3 ECD-His6 [3]: 10 fold
IC50 [4]: 0.0142 mg/L
B3: H5L7 (antibody, human IgG1, kappa)
heavy: not shown
light: B2 light
notes: Humanised IgG1/kappa of A9H12 (IMP731); also called fucosylated H5L7; non-ADCC enhanced variant H5L7
